In publication PMC11189300 one finds response data, which are given here for 2 substances.

In the experiment the target is KNL1 (construct of the BLI titrations with ZWINT). In words: BLI. The settings on record: immobilized ligand KNL1, end of association (~500 s), parent read from panel c, read off a plot.

As to “ZWINT (from UniProt O95229) C54A; L67A; I110A; L114A”, the response came to 0.025 nm (analyte ZWINT^M1 15.6 nM, parent: est. 0.040); 0.052 nm (analyte ZWINT^M1 31.2 nM, parent: est. 0.056); 0.071 nm (analyte ZWINT^M1 62.5 nM, parent: est. 0.071); 0.1 nm (analyte ZWINT^M1 125 nM, parent: est. 0.10); 0.14 nm (analyte ZWINT^M1 250 nM, parent: est. 0.14); 0.2 nm (analyte ZWINT^M1 500 nM, parent: est. 0.19). Moreover, the response (analyte ZWINT^M1 1,000 nM, parent: est. 0.22) was found to be 0.19 nm.
For “ZWINT (from UniProt O95229) C54A; S85R; I110A; L114A”, the response is, setting by setting: (analyte ZWINT^M2 500 nM, parent: est. 0.19) 0.055 nm; (analyte ZWINT^M2 1000 nM, parent: est. 0.22) 0.11 nm.
